What was measured:
[1] = biological target: T1, Human MuSK (R&D Systems, cat. 10189-MK, histidine tag) (human, UniProt O15146 24-495); assay: SPR (Biacore), MuSK-coated chip presaturated with 500 nM 4D3 (competitor)
T1 construct: Bought protein; also called human monomeric MuSK-6xhis; not shown: histidine tag (6xhis)
T1 sequence: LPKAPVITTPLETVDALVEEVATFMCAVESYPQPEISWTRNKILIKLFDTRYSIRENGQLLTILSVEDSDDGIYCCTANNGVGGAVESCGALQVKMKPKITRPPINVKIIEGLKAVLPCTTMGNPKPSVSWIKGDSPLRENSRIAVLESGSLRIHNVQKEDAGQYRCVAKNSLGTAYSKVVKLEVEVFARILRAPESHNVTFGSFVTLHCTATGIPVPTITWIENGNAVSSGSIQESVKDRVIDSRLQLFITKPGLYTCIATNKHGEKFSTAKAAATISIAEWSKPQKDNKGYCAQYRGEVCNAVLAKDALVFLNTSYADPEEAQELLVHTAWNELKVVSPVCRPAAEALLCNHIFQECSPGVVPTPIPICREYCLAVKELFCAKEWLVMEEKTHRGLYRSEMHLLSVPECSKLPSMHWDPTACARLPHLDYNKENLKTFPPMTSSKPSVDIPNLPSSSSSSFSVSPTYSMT
Protocol: (§1) A chip was coated with ˜5000 RU of human MuSK (Lot nr DHUCO 11908A, batch nr 1089_MK). In a first experiment the saturating concentration of the pre-leads was determined. This is the concentration where the amplitude of a specific pre-lead doesn't increase anymore when additional pre-lead is injected on the immobilized MuSK.

[2] = biological target: T1, Human MuSK (R&D Systems, cat. 10189-MK, …); assay: SPR (Biacore), MuSK-coated chip presaturated with 500 nM 3D10a (competitor)
Protocol: as §1

[3] = biological target: T1, Human MuSK (R&D Systems, cat. 10189-MK, …); assay: SPR (Biacore), MuSK-coated chip, antibody alone (run of first antibody 4D3)
Protocol: as §1

[4] = biological target: T2, human monomeric MuSK FLAG streptavidin (in house produced, batch 27-6-2019) (human, UniProt O15146 24-495); assay: epitope binning ELISA (coated anti-MuSK Fab, MuSK, IgG, anti-Fc HRP); competitor: 3D10a
T2 construct: also called full length MuSK; not shown: FLAG and streptavidin tags
T2 sequence: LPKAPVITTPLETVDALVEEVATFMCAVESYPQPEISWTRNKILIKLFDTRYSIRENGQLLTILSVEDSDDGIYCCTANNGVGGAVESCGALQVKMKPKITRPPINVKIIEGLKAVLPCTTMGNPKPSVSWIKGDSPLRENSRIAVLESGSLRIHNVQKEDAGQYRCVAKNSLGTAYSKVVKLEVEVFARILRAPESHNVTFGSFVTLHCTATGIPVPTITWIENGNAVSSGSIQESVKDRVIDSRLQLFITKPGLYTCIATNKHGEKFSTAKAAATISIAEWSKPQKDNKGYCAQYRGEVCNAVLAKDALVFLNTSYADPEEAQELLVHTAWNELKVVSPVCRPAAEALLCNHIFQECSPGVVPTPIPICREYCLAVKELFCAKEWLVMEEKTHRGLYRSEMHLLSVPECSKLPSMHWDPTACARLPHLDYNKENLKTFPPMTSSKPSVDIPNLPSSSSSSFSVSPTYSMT
Protocol: (§2) For epitope binning—An ELISA plate was coated at 1 μg/ml of the anti-MuSK Fabs and incubated overnight at 4° C. Next, the plate was wash with PBS followed by blocking with 1% casein in PBS for one hour. After washing the plate, 1 μg/ml of human monomeric MuSK (in house produced, batch 27-6-2019) was incubated for one hour at RT. The plate was washed and anti-MuSK antibodies at 0.3-10 μg/ml were added to the plate and incubated for one hour at RT. After washing the plate, detection antibody (goat anti-human Fc HRP (Jackson Immunoresearch cat. 109-035-098)) was added at 5000 fold dilution in PBS 0.1% casein. The plate was incubated for one hour at RT and washed with PBS-T. TMB was added and the reaction was stopped by adding H2504. […]
(§3) For the epitope binning ELISA, a plate was coated with anti-MuSK Fab and human monomeric MuSK was added after blocking the plate. Next the different antibodies were added and allowed to bind.

[5] = biological target: T1, Human MuSK (R&D Systems, cat. 10189-MK, …); assay: SPR (Biacore), MuSK-coated chip presaturated with 500 nM 3F6c (competitor)
Protocol: as §1

[6] = biological target: T1, Human MuSK (R&D Systems, cat. 10189-MK, …); assay: SPR (Biacore), MuSK-coated chip, antibody alone (run of first antibody 3D10a)
Protocol: as §1

[7] = biological target: T1, Human MuSK (R&D Systems, cat. 10189-MK, …); assay: SPR (Biacore), MuSK-coated chip presaturated with 500 nM 3D9b (competitor)
Protocol: as §1

[8] = biological target: T2, human monomeric MuSK FLAG streptavidin …; assay: epitope binning ELISA (coated anti-MuSK Fab, MuSK, IgG, anti-Fc HRP); competitor: 3F6c
Protocol: as §2, §3

[9] = biological target: T1, Human MuSK (R&D Systems, cat. 10189-MK, …); assay: SPR (Biacore), MuSK-coated chip, antibody alone (run of first antibody 3D9b)
Protocol: as §1

[10] = biological target: T2, human monomeric MuSK FLAG streptavidin …; assay: epitope binning ELISA (coated anti-MuSK Fab, MuSK, IgG, anti-Fc HRP); competitor: 3B5wt
Protocol: as §2, §3

[11] = biological target: T2, human monomeric MuSK FLAG streptavidin …; assay: epitope binning ELISA (coated anti-MuSK Fab, MuSK, IgG, anti-Fc HRP); competitor: 4D3
Protocol: as §2, §3

[12] = biological target: T1, Human MuSK (R&D Systems, cat. 10189-MK, …); assay: SPR (Biacore), MuSK-coated chip presaturated with 3F6c
[13] = biological target: T1, Human MuSK (R&D Systems, cat. 10189-MK, …); assay: SPR (Biacore), MuSK-coated chip, antibody alone (run of first antibody 3F6c)
Protocol: as §1

[14] = biological target: T2, human monomeric MuSK FLAG streptavidin …; assay: epitope binning ELISA (coated anti-MuSK Fab, MuSK, IgG, anti-Fc HRP); competitor: 3D9b
Protocol: as §2, §3

B1: 3B5 (antibody, V domains shown)
VH: QVQLVQSGAVVAKPGASVQVSCKTSGYTFTGQYLHWVRQAPGQGLEWIGWINPSSGVTKFAEKFEGRATMTRDTSITTAYIDLRSLRSDDTATYYCATLSLGVYYVGMVAWGQGTLVTVSS
VL: ELTQPPSVSVSPGQTATITCSGDGLAQQHVYWFQQRPGQAPLLIIYKDIERPSGIPERFSGSSSGTTAMLTISGVQAEDEADYYCQSGDRTATSVLFGGGTKMTVLG
notes: also called 3B5wt
amplitude of prelead after presaturating MuSK (RU) [1]: 141 RU
extra amplitude (%) [1]: 93%
normalized extra amplitude (%) [1]: 88.1%
amplitude of prelead after presaturating MuSK (RU) [2]: 2260 RU
extra amplitude (%) [2]: 344%
normalized extra amplitude (%) [2]: 342%
amplitude of prelead without presaturating MuSK (RU) [3]: 151 RU
OD 450 nm [4]: 1.88 OD
amplitude of prelead after presaturating MuSK (RU) [5]: 2230 RU
extra amplitude (%) [5]: 397%
normalized extra amplitude (%) [5]: 395%
amplitude of prelead without presaturating MuSK (RU) [6]: 658 RU
amplitude of prelead after presaturating MuSK (RU) [7]: 2150 RU
extra amplitude (%) [7]: 539%
normalized extra amplitude (%) [7]: 538%
OD 450 nm [8]: 2.03 OD
amplitude of prelead without presaturating MuSK (RU) [9]: 399 RU
OD 450 nm [10]: 0.048 OD
OD 450 nm [11]: 1.96 OD
fold of binding signal against amplitude on non-saturated MuSK [12]: ≥ 3 fold
amplitude of prelead without presaturating MuSK (RU) [13]: 562 RU
OD 450 nm [14]: 1.99 OD
